The values below come from paper PMC10348947, “Catalytic antibodies in arrhythmogenic cardiomyopathy patients cleave desmoglein 2 and N-cadherin and impair cardiomyocyte cohesion” (Cellular and Molecular Life Sciences: CMLS, 2023).

The data set concerns the molecule itself. Description: atomic force microscopy (cell-free force spectroscopy); the same Fc construct covalently linked via a PEG linker to the AFM tip and to the mica sheet; 37 °C; HBSS buffer; loading force 0.3 nN, contact delay 0.1 s, retraction velocity 1 µm/s; 1000 force-distance curves for the baseline trans-interaction probability, then 1 h with patient or control IgG (1:50).

B1: Recombinant human N-cadherin extracellular domain tagged with Fc fragment (N-CAD-Fc) (Fc fusion, UniProt P19022 160-724, looked up)
chain: DWVIPPINLPENSRGPFPQELVRIRSDRDKNLSLRYSVTGPGADQPPTGIFIINPISGQLSVTKPLDREQIARFHLRAHAVDINGNQVENPIDIVINVIDMNDNRPEFLHQVWNGTVPEGSKPGTYVMTVTAIDADDPNALNGMLRYRIVSQAPSTPSPNMFTINNETGDIITVAAGLDREKVQQYTLIIQATDMEGNPTYGLSNTATAVITVTDVNDNPPEFTAMTFYGEVPENRVDIIVANLTVTDKDQPHTPAWNAVYRISGGDPTGRFAIQTDPNSNDGLVTVVKPIDFETNRMFVLTVAAENQVPLAKGIQHPPQSTATVSVTVIDVNENPYFAPNPKIIRQEEGLHAGTMLTTFTAQDPDRYMQQNIRYTKLSDPANWLKIDPVNGQITTIAVLDRESPNVKNNIYNATFLASDNGIPPMSGTGTLQIYLLDINDNAPQVLPQEAETCETPDPNSINITALDYDIDPNAGPFAFDLPLSPVTIKRNWTITRLNGDFAQLNLKIKFLEAGIYEVPIIITDSGNPPKSNISILRVKVCQCDSNGDCTDVDRIVGAGLGTGA
notes: N-cadherin (N-CAD), human, extracellular domain-containing protein; The Western blot and cleavage assay used Sino Biological #11039-H03H, probably the same protein; The chain was covalently linked through a PEG linker to the AFM tip and the mica sheet; also called hN-CAD-Fc
With B1, the binding result was “binds”.
